For test [1], the target named is T1, FcγRIa extracellular domain with C-terminal His tag (human, UniProt P12314 16-292).
T1 construct: extracellular domain; also called FcgRI; CD64; not shown: His tag at the C terminus
In words: SPR Biacore, relative FcγRIa binding vs GpH7-B3/GpL16-k0. A general note: Surface plasmon resonance follows binding to a sensor surface in real time, without labels.

For test [2], the target named is T1, FcγRIa extracellular domain with …. In words: SPR Biacore, relative FcγRIa binding vs GpH7-A5/GpH7-B3/GpL16-k0.

T1 sequence (P12314 16-292): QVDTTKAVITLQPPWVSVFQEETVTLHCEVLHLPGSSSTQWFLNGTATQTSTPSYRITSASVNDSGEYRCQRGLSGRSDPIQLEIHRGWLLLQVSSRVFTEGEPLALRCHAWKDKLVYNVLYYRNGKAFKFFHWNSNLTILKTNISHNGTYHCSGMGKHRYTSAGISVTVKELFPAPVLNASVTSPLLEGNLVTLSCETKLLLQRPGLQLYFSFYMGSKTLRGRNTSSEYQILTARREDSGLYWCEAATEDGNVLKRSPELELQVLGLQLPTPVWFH

B1: GpH7-B3 variant T335_08L/GpL16-k0 (antibody, human IgG1, kappa)
heavy: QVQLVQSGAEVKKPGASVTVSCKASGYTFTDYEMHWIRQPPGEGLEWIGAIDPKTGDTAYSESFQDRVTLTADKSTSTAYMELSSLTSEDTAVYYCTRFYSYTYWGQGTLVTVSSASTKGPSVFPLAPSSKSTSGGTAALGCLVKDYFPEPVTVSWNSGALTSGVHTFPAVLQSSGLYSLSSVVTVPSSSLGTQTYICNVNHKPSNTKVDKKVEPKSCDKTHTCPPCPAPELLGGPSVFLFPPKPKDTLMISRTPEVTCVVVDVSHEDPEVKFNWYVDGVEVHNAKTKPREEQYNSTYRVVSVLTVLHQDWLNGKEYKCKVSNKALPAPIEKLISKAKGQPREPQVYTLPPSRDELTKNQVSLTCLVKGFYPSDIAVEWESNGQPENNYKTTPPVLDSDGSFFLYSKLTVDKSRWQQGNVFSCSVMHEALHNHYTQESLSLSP
light: DIVMTQSPLSLPVTPGEPASISCQASESLVHSNRNTYLHWYLQKPGQSPQLLIYKVSNRFSGVPDRFSGSGSGTDFTLKISRVEAEDVGVYYCSQNTHVPPTFGQGTKVEIERTVAAPSVFIFPPSDEQLKSGTASVVCLLNNFYPREAKVQWKVDNALQSGNSQESVTEQDSKDSTYSLSSTLTLSKADYEKHKVYACEVTHQGLSSPVTKSFNRGEC
notes: mutation in both H chains; also called Ho Ab T335_08L; T335L
Regarding B1, the Ho/Con_1a in test [1] is 105 % of HoCon Ab (=100).

B2: GpH7-A5/GpH7-B3 variant S298_11K/GpL16-k0 (antibody, human IgG1, kappa)
heavy 1: not shown
heavy 2: not shown
light: B1 light
notes: mutation in one H chain only; also called He Ab S298_11K; S298K
On to B2, for which the He/Con_1a in test [2] is 109 % of HeCon Ab (=100).

B3: GpH7-A5/GpH7-B3 variant S337_12R/GpL16-k0 (antibody, human IgG1, kappa)
heavy 1: not shown
heavy 2: not shown
light: B1 light
notes: mutation in one H chain only; also called He Ab S337_12R; S337R
For the molecule B3, the He/Con_1a in test [2] is 106 % of HeCon Ab (=100).

B4: GpH7-A5/GpH7-B3 variant S267_02A/GpL16-k0 (antibody, human IgG1, kappa)
heavy 1: not shown
heavy 2: not shown
light: B1 light
notes: mutation in one H chain only; also called He Ab S267_02A; S267A
In the case of B4, the He/Con_1a in test [2] is 109 % of HeCon Ab (=100).

B5: GpH7-A5/GpH7-B3 variant S298_01G/GpL16-k0 (antibody, human IgG1, kappa)
heavy 1: not shown
heavy 2: not shown
light: B1 light
notes: mutation in one H chain only; also called He Ab S298_01G; S298G
Regarding B5, in test [2], the He/Con_1a was 104 % of HeCon Ab (=100).

B6: GpH7-A5/GpH7-B3 variant S337_03V/GpL16-k0 (antibody, human IgG1, kappa)
heavy 1: not shown
heavy 2: not shown
light: B1 light
notes: mutation in one H chain only; also called He Ab S337_03V; S337V
As to B6, the He/Con_1a in test [2] is 107 % of HeCon Ab (=100).

B7: GpH7-A5/GpH7-B3 variant S337_09D/GpL16-k0 (antibody, human IgG1, kappa)
heavy 1: not shown
heavy 2: not shown
light: B1 light
notes: mutation in one H chain only; also called He Ab S337_09D; S337D
Consider B7, for which the He/Con_1a in test [2] was 106 % of HeCon Ab (=100).

B8: GpH7-A5/GpH7-B3 variant S298_16H/GpL16-k0 (antibody, human IgG1, kappa)
heavy 1: not shown
heavy 2: not shown
light: B1 light
notes: mutation in one H chain only; also called He Ab S298_16H; S298H
For the molecule B8, the He/Con_1a in test [2] was 109 % of HeCon Ab (=100).

B9: GpH7-B3 variant Y300_12R/GpL16-k0 (antibody, human IgG1, kappa)
heavy: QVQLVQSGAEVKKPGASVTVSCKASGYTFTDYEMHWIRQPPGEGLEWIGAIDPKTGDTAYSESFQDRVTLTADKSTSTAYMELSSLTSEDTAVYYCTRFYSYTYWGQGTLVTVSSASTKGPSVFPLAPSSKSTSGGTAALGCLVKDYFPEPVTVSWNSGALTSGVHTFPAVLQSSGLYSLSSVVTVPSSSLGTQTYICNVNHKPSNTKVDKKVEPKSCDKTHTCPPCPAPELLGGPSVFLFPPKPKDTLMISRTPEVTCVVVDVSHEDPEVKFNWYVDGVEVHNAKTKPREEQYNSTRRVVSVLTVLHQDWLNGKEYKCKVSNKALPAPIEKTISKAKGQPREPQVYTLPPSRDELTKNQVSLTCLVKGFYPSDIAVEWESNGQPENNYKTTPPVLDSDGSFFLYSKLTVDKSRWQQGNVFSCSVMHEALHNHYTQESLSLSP
light: B1 light
notes: mutation in both H chains; also called Ho Ab Y300_12R; Y300R
In the case of B9, the Ho/Con_1a in test [1] is 96.5 % of HoCon Ab (=100).

B10: GpH7-A5/GpH7-B3 variant S298_07I/GpL16-k0 (antibody, human IgG1, kappa)
heavy 1: not shown
heavy 2: not shown
light: B1 light
notes: mutation in one H chain only; also called He Ab S298_07I; S298I
Turning to B10, the He/Con_1a in test [2] is 107 % of HeCon Ab (=100).

B11: GpH7-A5/GpH7-B3 variant S324_16H/GpL16-k0 (antibody, human IgG1, kappa)
heavy 1: not shown
heavy 2: not shown
light: B1 light
notes: mutation in one H chain only; also called He Ab S324_16H; S324H
Consider B11, for which the He/Con_1a in test [2] is 113 % of HeCon Ab (=100).

B12: GpH7-B3 variant T335_12R/GpL16-k0 (antibody, human IgG1, kappa)
heavy: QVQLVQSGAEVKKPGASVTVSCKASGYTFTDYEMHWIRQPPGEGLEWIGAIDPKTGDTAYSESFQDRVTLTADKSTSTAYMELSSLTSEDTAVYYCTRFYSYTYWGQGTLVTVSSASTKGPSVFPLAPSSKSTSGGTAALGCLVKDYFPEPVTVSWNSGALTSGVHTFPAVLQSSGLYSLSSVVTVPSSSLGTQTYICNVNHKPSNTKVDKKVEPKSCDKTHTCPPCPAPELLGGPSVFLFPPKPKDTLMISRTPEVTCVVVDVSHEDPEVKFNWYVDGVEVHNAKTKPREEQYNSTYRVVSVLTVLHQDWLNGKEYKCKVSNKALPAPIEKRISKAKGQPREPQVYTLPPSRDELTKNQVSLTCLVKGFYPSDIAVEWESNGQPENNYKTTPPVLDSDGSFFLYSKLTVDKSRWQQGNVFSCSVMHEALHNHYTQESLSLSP
light: B1 light
notes: mutation in both H chains; also called Ho Ab T335_12R; T335R
As for B12, the Ho/Con_1a in test [1] was 106 % of HoCon Ab (=100).

B13: GpH7-A5/GpH7-B3 variant S298_14T/GpL16-k0 (antibody, human IgG1, kappa)
heavy 1: not shown
heavy 2: not shown
light: B1 light
notes: mutation in one H chain only; also called He Ab S298_14T; S298T
For B13, in test [2], the He/Con_1a was 107 % of HeCon Ab (=100).

B14: GpH7-A5/GpH7-B3 variant S267_01G/GpL16-k0 (antibody, human IgG1, kappa)
heavy 1: not shown
heavy 2: not shown
light: B1 light
notes: mutation in one H chain only; also called He Ab S267_01G; S267G
B14: the He/Con_1a in test [2] is 103 % of HeCon Ab (=100).

B15: GpH7-A5/GpH7-B3 variant S239_14T/GpL16-k0 (antibody, human IgG1, kappa)
heavy 1: not shown
heavy 2: not shown
light: B1 light
notes: mutation in one H chain only; also called He Ab S239_14T; S239T
Take B15: the He/Con_1a in test [2] is 101 % of HeCon Ab (=100).

B16: GpH7-A5/GpH7-B3 variant S239_18N/GpL16-k0 (antibody, human IgG1, kappa)
heavy 1: not shown
heavy 2: not shown
light: B1 light
notes: mutation in one H chain only; also called He Ab S239_18N; S239N
Turning to B16, the He/Con_1a in test [2] was 101 % of HeCon Ab (=100).

B17: GpH7-A5/GpH7-B3 variant S267_03V/GpL16-k0 (antibody, human IgG1, kappa)
heavy 1: not shown
heavy 2: not shown
light: B1 light
notes: mutation in one H chain only; also called He Ab S267_03V; S267V
Consider B17, for which the He/Con_1a in test [2] is 106 % of HeCon Ab (=100).

B18: GpH7-B3 variant T335_11K/GpL16-k0 (antibody, human IgG1, kappa)
heavy: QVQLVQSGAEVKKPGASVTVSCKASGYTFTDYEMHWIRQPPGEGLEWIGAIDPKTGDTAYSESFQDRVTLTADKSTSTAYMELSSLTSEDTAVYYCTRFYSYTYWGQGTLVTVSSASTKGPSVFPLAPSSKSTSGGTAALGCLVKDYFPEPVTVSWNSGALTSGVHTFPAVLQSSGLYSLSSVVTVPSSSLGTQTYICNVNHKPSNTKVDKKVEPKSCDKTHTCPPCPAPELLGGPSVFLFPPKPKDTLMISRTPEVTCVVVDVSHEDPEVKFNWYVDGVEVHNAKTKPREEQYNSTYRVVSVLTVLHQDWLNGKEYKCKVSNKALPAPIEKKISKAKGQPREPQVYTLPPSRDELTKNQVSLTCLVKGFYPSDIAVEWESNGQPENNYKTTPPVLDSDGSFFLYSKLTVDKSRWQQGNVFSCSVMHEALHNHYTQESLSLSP
light: B1 light
notes: mutation in both H chains; also called Ho Ab T335_11K; T335K
Consider B18, for which the Ho/Con_1a in test [1] was 103 % of HoCon Ab (=100).

B19: GpH7-A5/GpH7-B3 variant S298_10E/GpL16-k0 (antibody, human IgG1, kappa)
heavy 1: not shown
heavy 2: not shown
light: B1 light
notes: mutation in one H chain only; also called He Ab S298_10E; S298E
Regarding B19, the He/Con_1a in test [2] is 108 % of HeCon Ab (=100).

B20: GpH7-A5/GpH7-B3 variant S267_16H/GpL16-k0 (antibody, human IgG1, kappa)
heavy 1: not shown
heavy 2: not shown
light: B1 light
notes: mutation in one H chain only; also called He Ab S267_16H; S267H
B20: the He/Con_1a in test [2] is 100 % of HeCon Ab (=100).

B21: GpH7-A5/GpH7-B3 variant S239_09D/GpL16-k0 (antibody, human IgG1, kappa)
heavy 1: not shown
heavy 2: not shown
light: B1 light
notes: mutation in one H chain only; also called He Ab S239_09D; S239D
For the molecule B21, in test [2], the He/Con_1a is 101 % of HeCon Ab (=100).

B22: GpH7-B3 variant T335_15Y/GpL16-k0 (antibody, human IgG1, kappa)
heavy: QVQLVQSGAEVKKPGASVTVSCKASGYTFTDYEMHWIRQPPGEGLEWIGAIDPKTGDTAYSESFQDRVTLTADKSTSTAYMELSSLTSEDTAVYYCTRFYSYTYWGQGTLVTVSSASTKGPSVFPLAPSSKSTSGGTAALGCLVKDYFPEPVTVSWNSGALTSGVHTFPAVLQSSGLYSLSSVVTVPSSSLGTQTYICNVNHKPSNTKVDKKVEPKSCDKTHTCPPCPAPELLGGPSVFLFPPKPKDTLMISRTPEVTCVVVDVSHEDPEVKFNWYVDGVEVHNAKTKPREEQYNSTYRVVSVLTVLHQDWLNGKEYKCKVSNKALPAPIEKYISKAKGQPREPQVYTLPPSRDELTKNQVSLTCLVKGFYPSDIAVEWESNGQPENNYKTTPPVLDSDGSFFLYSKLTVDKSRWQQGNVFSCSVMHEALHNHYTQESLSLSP
light: B1 light
notes: mutation in both H chains; also called Ho Ab T335_15Y; T335Y
As for B22, the Ho/Con_1a in test [1] was 106 % of HoCon Ab (=100).

B23: GpH7-A5/GpH7-B3 variant S267_09D/GpL16-k0 (antibody, human IgG1, kappa)
heavy 1: not shown
heavy 2: not shown
light: B1 light
notes: mutation in one H chain only; also called He Ab S267_09D; S267D
Consider B23, for which, in test [2], the He/Con_1a is 110 % of HeCon Ab (=100).

B24: GpH7-A5/GpH7-B3 variant S298_15Y/GpL16-k0 (antibody, human IgG1, kappa)
heavy 1: not shown
heavy 2: not shown
light: B1 light
notes: mutation in one H chain only; also called He Ab S298_15Y; S298Y
As for B24, the He/Con_1a in test [2] is 107 % of HeCon Ab (=100).

B25: GpH7-A5/GpH7-B3 variant S337_04F/GpL16-k0 (antibody, human IgG1, kappa)
heavy 1: not shown
heavy 2: not shown
light: B1 light
notes: mutation in one H chain only; also called He Ab S337_04F; S337F
As to B25, the He/Con_1a in test [2] is 106 % of HeCon Ab (=100).

B26: GpH7-A5/GpH7-B3 variant S298_18N/GpL16-k0 (antibody, human IgG1, kappa)
heavy 1: not shown
heavy 2: not shown
light: B1 light
notes: mutation in one H chain only; also called He Ab S298_18N; S298N
Take B26: the He/Con_1a in test [2] was 108 % of HeCon Ab (=100).

B27: GpH7-A5/GpH7-B3 variant S298_12R/GpL16-k0 (antibody, human IgG1, kappa)
heavy 1: not shown
heavy 2: not shown
light: B1 light
notes: mutation in one H chain only; also called He Ab S298_12R; S298R
On to B27, for which the He/Con_1a in test [2] was 109 % of HeCon Ab (=100).

(Values after patent publication US20180155451A1 (published 2018).)
